In paper PMC7430637:
Positions count from the first letter of the chain named. In names and notes the source's numbering stands.

T1: FAM-H3(1–15)K9me3 peptide
T1 chain: ARTKQTARKSTGGKA

T2: H3(1-15)unmodified-FAM peptide (C-terminally fluorescein-labelled)
T2 chain: ARTKQTARKSTGGKA

T3: H3(1-15)K9me3-FAM peptide (C-terminally fluorescein-labelled)
T3 chain: ARTKQTARKSTGGKA

T4: FAM-H3(1-15)K9me3 peptide (N-terminally fluorescein-labelled)
T4 chain: ARTKQTARKSTGGKA

B1: mTTD-PHD V1 P293A; P294A; P295A (protein)
chain: VWEDTDLGLYKVNEYVDVRDNIFGAWFEAQVVQVQKRALSEDEPCSSSAVKTSEDDIMYHVKYDDYPEHGVDIVKAKNVRARARTVIPWENLEVGQVVMANYNVDYPRKRGFWYDVEICRKRQTRTARELYGNIRLLNDSQLNNCRIMFVDEVLMIELPKERRPLIASPSQAAAALRNTGKSGPSCRFCKDDENKPCRKCACHVCGGREAPEKQLLCDECDMAFHLYCLKPPLTSVPPEPEWYCPSCRTDSSEVVQAGE
B2: mTTD-PHD V1 R298A (protein)
chain: B1 chain with A172P, A173P, A174P, R177A
B3: mTTD-PHD V1 K302A; S303A (protein)
chain: B1 chain with A172P, A173P, A174P, K181A, S182A
B4: hTTD-PHD module carrying the nine amino acid insertion of mLinker 2 V1 (domain or fragment)
chain: MWDETELGLYKVNEYVDARDTNMGAWFEAQVVRVTRKAPSRDEPCSSTSRPALEEDVIYHVKYDDYPENGVVQMNSRDVRARARTIIKWQDLEVGQVVMLNYNPDNPKERGFWYDAEISRKRETRTARELYANVVLGDDSLNDCRIIFVDEVFKIERPGEGSPMVDNPMRPPPALRNTGKSGPSCKHCKDDVNRLCRVCACHLCGGRQDPDKQLMCDECDMAFHIYCLDPPLSSVPSEDEWYCPECRNDASEVVLAGE
modifications: not checked
B5: hTTD-PHD (domain or fragment)
chain: MWDETELGLYKVNEYVDARDTNMGAWFEAQVVRVTRKAPSRDEPCSSTSRPALEEDVIYHVKYDDYPENGVVQMNSRDVRARARTIIKWQDLEVGQVVMLNYNPDNPKERGFWYDAEISRKRETRTARELYANVVLGDDSLNDCRIIFVDEVFKIERPGEGSPMVDNPMRRKSGPSCKHCKDDVNRLCRVCACHLCGGRQDPDKQLMCDECDMAFHIYCLDPPLSSVPSEDEWYCPECRND
modifications: not checked
B6: hTTD-PHD, mLinker2 V1* (domain or fragment)
chain: B4 chain
modifications: not checked

What was measured:
[1] = target: T1, FAM-H3(1–15)K9me3 peptide; test: fluorescence polarization; settings: chain shown with the change; read at the highest protein concentration of the titration, about 50 µM on the x axis; parent: est. 0.28; read off a plot
[2] = target: T2, H3(1-15)unmodified-FAM peptide …; test: fluorescence polarisation; FAM-labelled H3(1-15) peptide, recombinant protein titrated; RT; as described (ref. 28)
[3] = target: T3, H3(1-15)K9me3-FAM peptide (C-terminally …); test: as above
[4] = target: T4, FAM-H3(1-15)K9me3 peptide (N-terminally …); test: as above
[5] = target: T1, FAM-H3(1–15)K9me3 peptide; test: fluorescence polarisation; FAM-labelled H3(1–15) peptide, recombinant protein titrated; room temperature; as described in ref. 28

| Binder | response (fraction bound) [1] | Kd [5] [µM] | further results |
| --- | --- | --- | --- |
| B1 | 0.87 | – | – |
| B2 | 0.97 | – | – |
| B3 | 0.2 | – | – |
| B4 | – | – | Kd [2]: 4.5 µM; Kd [3]: 6.9 µM; Kd [4]: > 50 µM |
| B5 | – | 16.2 | – |
| B6 | – | > 100 | – |
